Source: publication PMC10746276
pKd: −log10 of the molar value.

Biological target: CsrA-His6 (Escherichia coli) (UniProt P69913)
Assay: EMSA
Details: EMSA: 0.1 nM RNA, 10 mM MgCl2, 100 mM KCl, 32.5 ng yeast RNA, 20 mM DTT, 7.5% glycerol, 4 U SUPERasin, 30 min 37 C (pH not given), footprint: 2 nM RNA

CsrA-His6 (Escherichia coli), sequence (P69913 whole entry): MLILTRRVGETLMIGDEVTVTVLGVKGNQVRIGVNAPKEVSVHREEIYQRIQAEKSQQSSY

## yqjD leader WT, full-length (yqjC-yqjD intercistronic RNA)
  pKd: 8.10
Second shifted species at 30 nM CsrA and higher
  pKd: 8.05

## yqjD leader full-length, BS4 mutant (CUGGA to GUGGA)
  pKd: 7.60
